According to patent US20230190880A1, “Formulations of Human Parathyroid Hormone (PTH) and Methods for Producing Same” (Sichuan Luzhou Buchang BIO-Pharmaceutical Co., Ltd., priority 2020, published 2023):

Assay: Screening of pH and buffers: stability of liquid huPTH formulations by SEC-, RP- and CEX-HPLC
Type: physicochemical
Details: accelerated stability at 25° C. and 37° C.; pH 4.0-9.0 buffers, 140 mM NaCl, 1 mg/mL huPTH
Description: Recombinant huPTH (1 mg/mL) having the amino acid sequence set forth in SEQ ID NO: 2 was used as an active ingredient in the formulations. Table 1 provides a summary of the formulations that were tested in this example.
The results of SEC-HPLC, RP-HPLC and CEX-HPLC performed at 25° C. and 37° C. are depicted in FIGS. 4-6. The results of SEC-HPLC and RP-HPLC performed at 4° C. are depicted in FIGS. 7-8.

CC[C@H](C)[C@H](NC(=O)[C@H](CCC(=O)O)NC(=O)[C@H](CO)NC(=O)[C@@H](NC(=O)[C@@H](N)CO)C(C)C)C(=O)N[C@@H](CCC(N)=O)C(=O)N[C@@H](CC(C)C)C(=O)N[C@@H](CCSC)C(=O)N[C@@H](Cc1cnc[nH]1)C(=O)N[C@@H](CC(N)=O)C(=O)N[C@@H](CC(C)C)C(=O)NCC(=O)N[C@@H](CCCCN)C(=O)N[C@@H](Cc1cnc[nH]1)C(=O)N[C@@H](CC(C)C)C(=O)N[C@@H](CC(N)=O)C(=O)N[C@@H](CO)C(=O)N[C@@H](CCSC)C(=O)N[C@@H](CCC(=O)O)C(=O)N[C@@H](CCCN=C(N)N)C(=O)N[C@H](C(=O)N[C@@H](CCC(=O)O)C(=O)N[C@@H](Cc1c[nH]c2ccccc12)C(=O)N[C@@H](CC(C)C)C(=O)N[C@@H](CCCN=C(N)N)C(=O)N[C@@H](CCCCN)C(=O)N[C@@H](CCCCN)C(=O)N[C@@H](CC(C)C)C(=O)N[C@@H](CCC(N)=O)C(=O)N[C@@H](CC(=O)O)C(=O)N[C@H](C(=O)N[C@@H](Cc1cnc[nH]1)C(=O)N[C@@H](CC(N)=O)C(=O)N[C@@H](Cc1ccccc1)C(=O)O)C(C)C)C(C)C [huPTH]
stability profile as a function of pH: best stability profile at pH 5
